Drawing on US20150376260A1, this text covers cancer killing activity (in-vitro bioassay, MTS cell viability) on lymphatic cancer cells for 1 substance.

Experiment [1] concerns the target CD80 (B7.1), human, on lymphatic cancer cell lines (human) (UniProt P33681). Nature of the experiment: cell-based or functional assay.
Experiment [2] deals with CD86 (B7.2), human, on lymphatic cancer cell lines (human) (UniProt P42081). Nature of the experiment: cell-based or functional assay.
Chain of UniProt P42081 (P42081 24-329): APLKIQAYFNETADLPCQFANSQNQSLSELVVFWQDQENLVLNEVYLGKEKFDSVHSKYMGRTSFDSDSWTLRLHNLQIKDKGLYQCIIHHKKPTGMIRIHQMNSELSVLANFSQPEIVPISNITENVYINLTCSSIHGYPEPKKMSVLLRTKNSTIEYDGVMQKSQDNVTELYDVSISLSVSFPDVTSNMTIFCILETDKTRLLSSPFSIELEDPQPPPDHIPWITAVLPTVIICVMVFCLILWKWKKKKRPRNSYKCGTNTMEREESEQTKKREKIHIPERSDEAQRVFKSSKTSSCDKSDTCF

Chain of UniProt P33681 (P33681 35-288): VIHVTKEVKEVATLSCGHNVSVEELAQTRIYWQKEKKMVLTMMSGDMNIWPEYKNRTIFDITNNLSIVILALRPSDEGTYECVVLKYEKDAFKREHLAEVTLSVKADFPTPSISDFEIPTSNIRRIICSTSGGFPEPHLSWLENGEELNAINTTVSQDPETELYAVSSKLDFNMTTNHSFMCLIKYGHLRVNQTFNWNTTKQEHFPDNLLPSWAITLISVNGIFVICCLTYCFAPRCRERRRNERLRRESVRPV

Consider CTLA4-FasL fusion protein, for which the cancer killing activity (in-vitro bioassay, MTS cell viability) on lymphatic cancer cells in experiment [1] and in experiment [2] was 0.02 nM throughout.
